# Assay results taken from US20220356229A1 (published 2022).
# Numbering of substitutions follows the chain as printed.
# T1: MERS full length Spike (MERS-CoV, UniProt K9N5Q8 18-1291)
# T1 sequence: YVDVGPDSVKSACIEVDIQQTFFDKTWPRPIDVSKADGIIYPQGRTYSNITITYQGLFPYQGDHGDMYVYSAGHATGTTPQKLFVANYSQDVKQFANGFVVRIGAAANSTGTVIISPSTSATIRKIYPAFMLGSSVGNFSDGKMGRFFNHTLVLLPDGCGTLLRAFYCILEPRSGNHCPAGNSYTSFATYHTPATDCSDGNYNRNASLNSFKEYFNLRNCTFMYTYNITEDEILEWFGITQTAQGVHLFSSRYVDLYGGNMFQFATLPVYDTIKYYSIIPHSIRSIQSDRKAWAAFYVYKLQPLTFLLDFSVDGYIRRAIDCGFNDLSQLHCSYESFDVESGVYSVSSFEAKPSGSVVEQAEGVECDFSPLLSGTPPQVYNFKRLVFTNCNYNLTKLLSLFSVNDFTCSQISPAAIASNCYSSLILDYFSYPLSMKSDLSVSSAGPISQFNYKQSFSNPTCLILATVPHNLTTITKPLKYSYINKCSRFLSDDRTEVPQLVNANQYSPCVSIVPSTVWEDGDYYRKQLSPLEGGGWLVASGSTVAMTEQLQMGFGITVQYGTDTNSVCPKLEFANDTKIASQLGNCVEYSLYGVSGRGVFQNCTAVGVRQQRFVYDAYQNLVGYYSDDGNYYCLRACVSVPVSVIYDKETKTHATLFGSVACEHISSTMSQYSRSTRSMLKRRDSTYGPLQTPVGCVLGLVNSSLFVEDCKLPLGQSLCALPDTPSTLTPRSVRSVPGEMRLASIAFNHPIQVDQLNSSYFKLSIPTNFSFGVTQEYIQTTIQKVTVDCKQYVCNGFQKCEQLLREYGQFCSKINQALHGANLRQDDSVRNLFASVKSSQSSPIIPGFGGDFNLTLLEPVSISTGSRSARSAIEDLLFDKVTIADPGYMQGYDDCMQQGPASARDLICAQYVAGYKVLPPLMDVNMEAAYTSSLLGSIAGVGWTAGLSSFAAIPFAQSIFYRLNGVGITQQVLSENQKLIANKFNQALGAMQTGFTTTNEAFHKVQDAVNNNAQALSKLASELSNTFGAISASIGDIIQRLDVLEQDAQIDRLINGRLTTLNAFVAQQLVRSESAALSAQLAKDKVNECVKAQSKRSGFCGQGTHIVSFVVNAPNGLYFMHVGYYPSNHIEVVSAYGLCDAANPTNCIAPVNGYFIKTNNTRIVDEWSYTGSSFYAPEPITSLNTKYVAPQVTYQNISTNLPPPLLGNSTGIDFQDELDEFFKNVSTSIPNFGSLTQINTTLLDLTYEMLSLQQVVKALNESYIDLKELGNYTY
# T2: HKU1 full length Spike (human coronavirus HKU1, UniProt Q5MQD0 13-1276)
# T2 sequence: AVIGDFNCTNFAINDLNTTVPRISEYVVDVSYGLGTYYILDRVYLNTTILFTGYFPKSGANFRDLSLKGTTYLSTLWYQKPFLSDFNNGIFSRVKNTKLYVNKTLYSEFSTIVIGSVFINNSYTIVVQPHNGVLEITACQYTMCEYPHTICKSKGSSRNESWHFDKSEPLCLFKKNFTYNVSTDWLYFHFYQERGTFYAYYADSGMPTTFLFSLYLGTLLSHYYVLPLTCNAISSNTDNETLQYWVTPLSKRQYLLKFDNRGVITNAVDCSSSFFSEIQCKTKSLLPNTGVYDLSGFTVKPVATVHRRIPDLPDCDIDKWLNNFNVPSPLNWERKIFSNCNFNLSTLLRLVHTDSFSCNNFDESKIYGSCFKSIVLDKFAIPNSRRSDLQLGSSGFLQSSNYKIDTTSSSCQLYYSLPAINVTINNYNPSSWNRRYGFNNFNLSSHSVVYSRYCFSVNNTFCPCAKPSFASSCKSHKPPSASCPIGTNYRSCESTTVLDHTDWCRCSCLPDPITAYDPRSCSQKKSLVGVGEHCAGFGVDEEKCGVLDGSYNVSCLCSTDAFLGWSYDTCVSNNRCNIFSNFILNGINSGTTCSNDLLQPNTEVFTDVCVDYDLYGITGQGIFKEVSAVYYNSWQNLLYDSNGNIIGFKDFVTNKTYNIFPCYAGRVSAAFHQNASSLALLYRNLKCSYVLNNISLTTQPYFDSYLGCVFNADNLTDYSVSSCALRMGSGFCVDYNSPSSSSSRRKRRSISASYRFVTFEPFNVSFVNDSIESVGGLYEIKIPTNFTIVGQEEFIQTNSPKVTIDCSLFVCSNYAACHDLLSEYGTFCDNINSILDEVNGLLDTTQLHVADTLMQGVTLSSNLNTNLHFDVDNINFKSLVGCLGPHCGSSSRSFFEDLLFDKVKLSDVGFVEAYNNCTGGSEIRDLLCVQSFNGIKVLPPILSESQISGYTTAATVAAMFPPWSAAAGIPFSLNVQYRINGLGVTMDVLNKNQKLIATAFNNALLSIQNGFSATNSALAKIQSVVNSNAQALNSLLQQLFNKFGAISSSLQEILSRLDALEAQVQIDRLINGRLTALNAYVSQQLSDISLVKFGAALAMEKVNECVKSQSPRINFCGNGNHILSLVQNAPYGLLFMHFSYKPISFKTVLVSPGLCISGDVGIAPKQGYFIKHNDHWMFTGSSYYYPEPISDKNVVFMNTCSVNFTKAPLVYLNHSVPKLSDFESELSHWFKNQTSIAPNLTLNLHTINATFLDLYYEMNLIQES
# B1: mAb 896 (antibody, V domains shown)
# VH: EVQLVESGGGVVQPGGSLRLSCAASGFTFDDYAMHWVRQVPGKGLEWVSLISGDGGSTYYADSVKGRFTISRDNSKNSLYVQMNSLRTEDTALYYCVKDRGGSGWDLNHYYYGMDVWGQGTTVTVSS
# VL: DIQLTQSPSFLSASVGDRVTVTCRASQGISSYLAWYQQKPGKAPKLLIYAAYTLQSGVPSRFSGSGSETEFTLTISSLQPEDFATYYCQQVKSYPLTFGGGTKVEIKR
# B2: mAb 936 (antibody, V domains shown)
# VH: EVQLVESGGGLVQPGRSLTLSCAGSGFTFDDYAMHWVRQAPGKGLEWVSGISWNSGSIGYADSVKGRFTISRDNAKNSLYLQMNSLRAEDTALYYCAKDVSYDSSGYYNNAFDIWGQGTMVTVSS
# VL: B1 VL with V21I, Y52S, E68G, V91L, K92Y, L96V, G100Q, K103R, V104L
# B3: mAb 1015 (antibody, V domains shown)
# VH: EVQLVESGGGLVQPGGSLRLSCAASGFTFSSYWMHWVRQAPGKGLVWVSHINSDGSSTSYADSVKGRFTISRDNAKNTLYLQMNSLRAEDTAVYYCARGLRYFDLDVWGQGTTVTVSS
# VL: QSVLTQPPSVSEAPRQRVTISCSGSSSNIGNNAVNWYQQLPGKAPKLLIFYDDLLPSGVSDRFSGSKSGTSASLAISGLQSEDEADYYCAAWDDSLNGGVFGGGTKLTVLG
# B4: mAb 1135 (antibody, V domains shown)
# VH: EVQLVESGGGLVQPGRSLRLSCAASGLTFEDYAMHWVRQVPGKGLEWVSGISWNSGTIGYADSVKGRFIISRDNAKNSLYLQMRSLRAEDTALYYCAKDVGFGELLYYAFDIWGQGTMVTVSS
# VL: QSALTQPASVSGSPGQSITISCTGTSSDVGGYNYVSWYQQHPGKAPKLMIYDVSNRPSGVSNRFSGSKSGNTASLTISGLQAEDEADYYCSSYTSSSTVVFGGGTKLTVLG
# B5: mAb 1036 (antibody, V domains shown)
# VH: QVQLVQSGAEVKKPGSSVKVSCKASGGTLSSYTISWVRQAPGQGLEWMGRIIPILGIADYAQKFQGRVTITADKSTTTAYMDLSSLGSEDTALYYCASAPKDWSSGFDYYYGMDVWGQGTMVTVSS
# VL: DIVMTQTPLSLSVTPGQPASISCKSSQSLLNSDGKTYLYWYLQKAGQPPQLLIYEVSNRFSGVPERFSGSGSGTDFTLKISRVEAEDVGVYYCMQSVQLPPYTFGQGTKLEITR
# B6: mAb 1075 (antibody, V domains shown)
# VH: QVQLVQSGAEVKKPGASVKVSCKVSGYTLIELSMHWVRQAPGKGLEWMGGFDPEDGETIYAQKFQGRVTMTEDTSTDTAYMELSSLRSEDTAVYYCATEWAYYGSGSYLGYWGQGTLVTVSS
# VL: EIVMTQSPATLSVSPGERATLSCRASQSVSSNLAWFQQKPGQAPRLLIYGASTRVTVIPARFSGSGSGTEFTLTISSLQSEDFAVYYCQQYNNWPRTFGQGTKVEIKR
# B7: mAb 923 (antibody, V domains shown)
# VH: EVQLVESGGGVVRPGGSLRLSCAASGFIFDDYDMTWVRQAPGKGLEWVSGISWNGGNTGYADSVKGRFTISRDNAKNSLYLQMNSLRAEDTALYHCAVIMSPIPRYSGYDWAGGAFDIWGQGTMVTVSS
# VL: SSELTQDPAVSVALGQTVRITCQGDSLRSYYASWYQQKPGQVPILVIYDKNNRPSGIPDRFSGSSSGNTASLTITGAQAEDEADYYCNSRDSSGNAVVFGGGTKLTVLG
# B8: mAb 1037 (antibody, V domains shown)
# VH: QITLKESGPTLVKPTQTLTLTCTFSGFSLSTSGVGVGWIRQPPGKALEWLALIYWDDDKRYSPSLKSRLTITKDTSKNQVVLTMTNMDPVDTATYYCAHHTITRINDYWGQGTLVTVSS
# VL: QSALTQPASVSGSPGQSITISCTATSSDVGAYNYVSWYQQHPGKAPKLMIYDVSKRPSGVSNRFSGSKSGNTASLTISGLQAEDEADYYCSSYTSSSTVFGGGTKLTVLG
# B9: mAb 1404 (antibody, V domains shown)
# VH: B8 VH with T31I, I39L, T72S, T83K, M87I, T101S, T103S, R104T, N106F, Y108H
# VL: B8 VL with A31D, Y51F, D52E, K55D, V60I, S95T, T98A
# B10: mAb 1149 (antibody, V domains shown)
# VH: QVQLVQSGAEVKKPGASVKVSCKASGYTFASYDINWVRQATGQGPEWMGWMIPNIGNTGYAQKFQGRVTMTRNTSISTAYMELSSLTSEDTAVYYCARVSRLFNDFGLRHEAPVDFWGQGTRVTVSS
# VL: QSVLTQPPSVSGAPGQRVTISCTGSSSNIGAGYDVHWYQQLPGTAPKLLIYGYSSRPSGVPDRFSGSKSGTSASLAITGLQAEDEADYYCQSYDSSLSVLFGGGTKLTVLG
# B11: mAb 970 (antibody, V domains shown)
# VH: EVQLVESGGGLVQPGGSLRLSCAASGFTFSSYWMSWVRQAPGKGLEWVANINKDGSEKYYVDSVKGRFTISRDNAKNSLYLQMNSLRAEDTAVYFCARDYRYFDWLLSQIDLEIDYFDYWGQGTLVTVSS
# VL: not shown
# Target: SARS-CoV full length Spike (SARS-CoV, UniProt P59594 14-1190)
row,Binder,"median fluorescence intensity, fold over isotype control [fold over isotype]"
1,B1,0.97
2,B2,0.95
3,B3,0.91
4,B4,0.92
5,B5,1.05
6,B6,0.91
7,B7,773
8,B8,4.36
9,B9,0.97
10,B10,1.05
11,B11,547

# Target: T1, MERS full length Spike
row,Binder,"median fluorescence intensity, fold over isotype control [fold over isotype]"
1,B1,1.02
2,B2,0.92
3,B3,0.85
4,B4,0.93
5,B5,1.07
6,B6,0.89
7,B7,1.08
8,B8,1.06
9,B9,0.91
10,B10,1.04
11,B11,0.87

# Target: T2, HKU1 full length Spike
row,Binder,"median fluorescence intensity, fold over isotype control [fold over isotype]"
1,B1,1.07
2,B2,1.02
3,B3,1.04
4,B4,0.83
5,B5,0.94
6,B6,0.93
7,B7,1.42
8,B8,1.43
9,B9,0.94
10,B10,0.83
11,B11,0.88
